Measured values reported in paper PMC9943895.

Biological target: proteasomal core particle (WT) (yeast (endogenous)) (UniProt P21243)
Experiment: stimulation of CP peptidase activity (suc-LLVY-AMC) by titrated base; base titrated against 2 nM CP, preincubated 15 min at 30 °C; 5 μM suc-LLVY-AMC; initial rates fitted to a hyperbola (Michaelis–Menten); surrogate readout for base–CP interaction

| Substance | Kd [µM] |
| --- | --- |
| base subcomplex purified from nas6Δ cells (WT Rpt3), P38764 1-993; P32565 1-945; O13563 1-156; P33299 1-467; P40327 1-437; P33298 1-428; P53549 1-437; P33297 1-434; Q01939 1-405 | 0.036 |
| base subcomplex purified from nas6Δ rpt3-Δ3 cells, P38764 1-993; P32565 1-945; O13563 1-156; P33299 1-467; P40327 1-437; P33298 1-428; P53549 1-437; P33297 1-434; Q01939 1-405 | 0.145 |
